Data as given in article PMC9083094.
Values joined by “and” are separate entries in the source; they are usually repeats but may differ in a detail not shown here. Equal values may be shown once.

Tests used:
[1] = molecular target: Aβ_(C18C33), mutant Aβ42 peptide containing an intramolecular disulfide bond; assay: native MS
[2] = molecular target: Aβ_(C18C33), mutant Aβ42 peptide containing an intramolecular disulfide bond; assay: SDS-PAGE
[3] = molecular target: Aβ_(C18C33), mutant Aβ42 peptide containing an intramolecular disulfide bond; assay: SDS-PAGE; remark: listed apart in the source
[4] = molecular target: Aβ_(C18C33), mutant Aβ42 peptide containing an intramolecular disulfide bond; assay: native MS; remark: listed apart in the source
[5] = molecular target: Aβ_(C18C33), mutant Aβ42 peptide containing an intramolecular disulfide bond; assay: native MS; remark: listed apart in the source
[6] = molecular target: Aβ_(C18C33), mutant Aβ42 peptide containing an intramolecular disulfide bond; assay: SEC-MS
[7] = molecular target: Aβ_(C24C29), mutant Aβ42 peptide with an intramolecular disulfide bond; assay: SDS-PAGE

Row | stoichiometry N [1] | stoichiometry N [2] | stoichiometry N [3] | stoichiometry N [4] | stoichiometry N [5] | stoichiometry N [6] | stoichiometry N [7] | Substance
1 | 2 and 4 | 2 | 2 | 4 | 4 | 2 |  | Aβ_(C18C33), mutant Aβ42 peptide containing an intramolecular disulfide bond
2 |  |  |  |  |  |  | 3 and 4 | Aβ_(C24C29), mutant Aβ42 peptide with an intramolecular disulfide bond
